# Source: patent US20240002475A1 (ROCKEFELLER UNIVERSITY, published 2024)
# Molecular target: green fluorescent protein (GFP), recombinant (Aequorea victoria, UniProt P42212 1-238 = GFP)
# Test: not stated there (SPR or in vitro binding assay)
binder,measurement,value
LaG-41 (VHH) VHH: DVQLVESGGGLVQAGGSLRLSCAASGPTGAMAWFRQAPGKEREFVGGISGSETDTYYVDSVKGRFTVDRDNVKNTVYLQMNSLKPEDTAVYYCAARRRITLFTSRTDYDFWGRGTQVTV,Kd,0.9 nM
